Experimental data as given in IntAct's records for PubMed 16525507.

B1: Type II secretion system protein E (Xanthomonas campestris pv. campestris), P31742 (parent)
chain: MEQRSAETRIVEALLERRRLKDTDLVRARQLQAESGMGLLALLGRLGLVSERDHAETCAEVLGLPLVDARQLGDTPPEMLPEVQGLSLRFLKQFHLCPVGERDGRLDLWIADPYDDYAIDAVRLATGLPLLLQVGLRSEIDDLIERWYGQGRSAMGTIVETADGDASSTDDIEALRDLASEAPVIRLVNLVIQHAVELRASDIHIEPFESRLKVRYRVDGVLVEGESPPAKLTAAVISRIKIMAKLNIAERRLPQDGRIMLRVQGKELDLRVSTVPTAHGESVVMRLLDRETVVFDFYKLGFTEDFLPQFRKVLEQPHGIMLVTGPTGSGKTTTLYTALSQLNTSDVKIITVEDPVEYQIEGINQIQAKPQIGLDFANALRSIVRQDPDIIMIGEMRDLETARIAIQSALTGHLVLSTLHTNNAAGGITRLLDMGVEDYLLTSTINGILAQRLVRKLDLANAERYAASPEEIERFDLRRLQPDGEIFLYRPRATAAAPTGYLGRTTIVEFLVMNDELRRAVMRRAGMGEIEQLARKSGMRTMYEDGLSKALRGETTIEEVLRVTEDA
partner: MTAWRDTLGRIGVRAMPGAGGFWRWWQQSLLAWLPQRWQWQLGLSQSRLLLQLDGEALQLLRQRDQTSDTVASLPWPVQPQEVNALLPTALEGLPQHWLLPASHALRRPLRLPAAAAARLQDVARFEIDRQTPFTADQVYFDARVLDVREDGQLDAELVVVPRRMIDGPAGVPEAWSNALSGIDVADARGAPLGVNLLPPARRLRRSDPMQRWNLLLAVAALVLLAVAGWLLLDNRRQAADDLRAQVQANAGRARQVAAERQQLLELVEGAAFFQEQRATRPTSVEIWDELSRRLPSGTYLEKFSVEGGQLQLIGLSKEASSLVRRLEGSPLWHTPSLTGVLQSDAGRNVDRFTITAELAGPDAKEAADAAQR

Variants of: B1
Settings: with gspl_xancp pefL

| Variant | effect of a mutation on the interaction |
| --- | --- |
| MEQRSAETRIVEALLERRRLKDTDLVRARQLQAESGMGLLALLGRLGLVSERDHAETCAEVLGLPLVDARQLGDTPPEMLPEVQGLSLRFLKQFHLCPVGERDGRLDLWIADPYDDYAIDAVRLATGLPLLLQVGLRSEIDDLIERWYGQGRSAMGTIVETADGDASSTDDIEALRDLASEAPVIRLVNLVIQHAVELRASDIHIEPFESRLKVRYRVDGVLVEGESPPAKLTAAVISRIKIMAKLNIAERRLPQDGRIMLRVQGKELDLRVSTVPTAHGESVVMRLLDRETVVFDFYKLGFTEDFLPQFRKVLEQPHGIMLVTGPTGSGKTTTLYTALSQLNTSDVKIITVEDPVEYQIEGINQIQAKPQIGLDFANALRSIVRQDPDIIMIGEMRDLETARIAIQSALTGHLVLSTLHTNNAAGGITRLLDMGVEDYLLTSTINGILAQRLVRKLDLANAERYAASPEEIERFDLRRLQPDGEIFLYRPRATAAAPTGYLGATTIVEFLVMNDELRRAVMRRAGMGEIEQLARKSGMRTMYEDGLSKALRGETTIEEVLRVTEDA [R504A] | disrupting interaction |
| MEQRSAETRIVEALLERRRLKDTDLVRARQLQAESGMGLLALLGRLGLVSERDHAETCAEVLGLPLVDARQLGDTPPEMLPEVQGLSLRFLKQFHLCPVGERDGRLDLWIADPYDDYAIDAVRLATGLPLLLQVGLRSEIDDLIERWYGQGRSAMGTIVETADGDASSTDDIEALRDLASEAPVIRLVNLVIQHAVELRASDIHIEPFESRLKVRYRVDGVLVEGESPPAKLTAAVISRIKIMAKLNIAERRLPQDGRIMLRVQGKELDLRVSTVPTAHGESVVMRLLDRETVVFDFYKLGFTEDFLPQFRKVLEQPHGIMLVTGPTGSGMTTTLYTALSQLNTSDVKIITVEDPVEYQIEGINQIQAKPQIGLDFANALRSIVRQDPDIIMIGEMRDLETARIAIQSALTGHLVLSTLHTNNAAGGITRLLDMGVEDYLLTSTINGILAQRLVRKLDLANAERYAASPEEIERFDLRRLQPDGEIFLYRPRATAAAPTGYLGRTTIVEFLVMNDELRRAVMRRAGMGEIEQLARKSGMRTMYEDGLSKALRGETTIEEVLRVTEDA [K331M] | disrupting interaction |
